# Where two headings read alike, the source gives them in different places. Bridge positions count the residues as written; N and C are the ends. Peptide text beside a SMILES is read from it. * marks the point of attachment. DOTA = O=C(O)CN1CCN(CC(=O)O)CCN(CC(=O)*)CCN(CC(=O)O)CC1
# Columns and labels:
# [1] = In vivo biodistribution in T47D tumor bearing SCID mice; details: female, ICR SCID, mouse, iv, total radioactivity, n = 4; for tissue uptake at 1 h / dose excreted at 1 h: 1 hour post-injection; for tissue uptake at 24 h / dose excreted at 24 h: 24 hours post-injection
# Description: (§1) In vivo iodistribution studies. Four- to 5-week old female ICR SCID ([…]) outbred mice were obtained from Taconic (Germantown, N.Y.). The mice were housed five animals per cage in sterile micro isolator cages in a temperature- and humidity-controlled room with a 12-hour light/12-hour dark schedule. The animals were fed autoclaved rodent chow (Ralston Purina Company, St. Louis, Mo.) and water ad libitum. Animals were housed one week prior to inoculation of tumor cells and anesthetized for injections with isoflurane (Baxter Healthcare Corp., Deerfield, Ill.) at a rate of 2.5% with 0.4L oxygen through a non-rebreathing anesthesia vaporizer.
# (§2) Human breast cancer MB231 and T47D cells were injected on the bilateral subcutaneous (s.c.) flank with ˜5×10^6 cells in a suspension of 100 μl normal sterile saline per injection site. MB231 and T47D cells were allowed to grow in vivo two to three weeks post inoculation developing tumors ranging in sizes from 0.02-1.30 grams. The biodistribution and uptake of ^111In-DOTA-Phe^19-STh or ^111In-DOTA-6-Ahx-Phe^19-STh in tumor bearing SCID mice was studied. The mice (average weight, 25 g) were injected with aliquots (50-100 μl) of the radiolabeled peptide solution (55-75 kBq) in each animal via the tail vein. Tissues, organs and tumors were excised from the animals sacrificed at 1 hr, 4 hrs and 24 hrs p.i. For blocking studies, an access of non-radioactive 6-Ahx-Phe^19-STh (100 μg) was also injected along with the radiolabeled peptide solution. The radioactivity was measured in a NaI counter and the percent-injected dose per organ and the percent-injected dose per gram tissue were calculated (Tables 5 and 6). Animal studies were conducted in accordance with the highest standards of care as outlined in the NIH guide for Care and Use of Laboratory Animals and the Policy and Procedures for Animal Research at the Harry S. Truman Memorial VA Hospital and according to approved protocols.
# [2] = tested on: T47D tumor bearing SCID mice; assay: as above; details: 4 hours post-injection, n = 4
# Description: as §1, §2
# [3] = T47D tumor, T47D tumor, read-out: biodistribution, Tumor
# [4] = blood, read-out: biodistribution, Blood
# [5] = heart, read-out: biodistribution, Heart
# [6] = kidney, read-out: biodistribution, Kidney
# [7] = large intestine, read-out: biodistribution, Large Intestine
# [8] = liver, read-out: biodistribution, Liver
# [9] = lung, read-out: biodistribution, Lung
# [10] = muscle, read-out: biodistribution, Muscle
# [11] = pancreas, read-out: biodistribution, Pancreas
# [12] = small intestine, read-out: biodistribution, Small Intestine
# [13] = spleen, read-out: biodistribution, Spleen
# [14] = stomach, read-out: biodistribution, Stomach
# [15] = urine, read-out: biodistribution, Urine (Avg % ID)
structure (smiles),measurement,setting,value
"CC(C)C[C@@H]1NC(=O)[C@H](CCC(=O)O)NC(=O)[C@@H]2CSSC[C@@H]3NC(=O)[C@H](C)NC(=O)[C@@H]4CCCN4C(=O)[C@H](CC(N)=O)NC(=O)[C@H](CSSC[C@H](NC(=O)[C@H](Cc4ccc(O)cc4)NC(=O)[C@H](CC(N)=O)NC(=O)[C@H](CO)NC(=O)[C@H](CO)NC(=O)[C@H](CC(N)=O)NC(=O)CN4CCN(CC(=O)O)CCN(CC(=O)O)CCN(CC(=O)O)CC4)C(=O)N2)NC(=O)[C@H](CSSC[C@@H](C(=O)N[C@@H](Cc2ccccc2)C(=O)O)NC(=O)CNC(=O)[C@H]([C@@H](C)O)NC3=O)NC1=O [^111In-DOTA-Phe^19-STh, metal not drawn] ({DOTA}-NSSNYCCELCCNPACTGCF-OH; disulfide 6-11, 7-15, 10-18)",tissue uptake at 1 h,"[1]; T47D tumor, T47D tumor, Blocking (100 μg non-radioactive 6-Ahx-Phe^19-STh co-injected), read-out: biodistribution, Tumor",0.43 ± 0.2 %ID/g
same,tissue uptake at 1 h,[1]; [3],0.67 ± 0.23 %ID/g
same,tissue uptake at 4 h,"[1]; T47D tumor, T47D tumor, 4 hours post-injection, read-out: biodistribution, Tumor",0.17 ± 0.16 %ID/g
same,tissue uptake at 24 h,[1]; [3],0.14 ± 0.12 %ID/g
same,tissue uptake at 1 h,"[1]; blood, Blocking (100 μg non-radioactive 6-Ahx-Phe^19-STh co-injected), read-out: biodistribution, Blood",0.57 ± 0.19 %ID/g
same,tissue uptake at 1 h,[1]; [4],0.82 ± 0.34 %ID/g
same,tissue uptake at 4 h,"[1]; blood, 4 hours post-injection, read-out: biodistribution, Blood",0.01 ± 0.01 %ID/g
same,tissue uptake at 24 h,[1]; [4],0.02 ± 0.01 %ID/g
same,dose excreted at 24 h,"[1]; faeces, read-out: biodistribution, Feces (Avg % ID)",1.4 ± 0.7%
same,tissue uptake at 1 h,"[1]; heart, Blocking (100 μg non-radioactive 6-Ahx-Phe^19-STh co-injected), read-out: biodistribution, Heart",0.13 ± 0.1 %ID/g
same,tissue uptake at 1 h,[1]; [5],0.15 ± 0.11 %ID/g
same,tissue uptake at 24 h,[1]; [5],0.08 ± 0.08 %ID/g
same,tissue uptake at 1 h,"[1]; kidney, Blocking (100 μg non-radioactive 6-Ahx-Phe^19-STh co-injected), read-out: biodistribution, Kidney",5.88 ± 1.47 %ID/g
same,tissue uptake at 1 h,[1]; [6],4.7 ± 1.4 %ID/g
same,tissue uptake at 4 h,"[1]; kidney, 4 hours post-injection, read-out: biodistribution, Kidney",2.02 ± 0.35 %ID/g
same,tissue uptake at 24 h,[1]; [6],1.04 ± 0.33 %ID/g
same,tissue uptake at 1 h,"[1]; large intestine, Blocking (100 μg non-radioactive 6-Ahx-Phe^19-STh co-injected), read-out: biodistribution, Large Intestine",0.17 ± 0.06 %ID/g
same,tissue uptake at 1 h,[1]; [7],0.57 ± 0.21 %ID/g
same,tissue uptake at 4 h,"[1]; large intestine, 4 hours post-injection, read-out: biodistribution, Large Intestine",1.74 ± 1.04 %ID/g
same,tissue uptake at 24 h,[1]; [7],0.1 ± 0.03 %ID/g
same,tissue uptake at 1 h,"[1]; liver, Blocking (100 μg non-radioactive 6-Ahx-Phe^19-STh co-injected), read-out: biodistribution, Liver",0.19 ± 0.04 %ID/g
same,tissue uptake at 1 h,[1]; [8],0.26 ± 0.12 %ID/g
same,tissue uptake at 4 h,"[1]; liver, 4 hours post-injection, read-out: biodistribution, Liver",0.06 ± 0.01 %ID/g
same,tissue uptake at 24 h,[1]; [8],0.03 ± 0.01 %ID/g
same,tissue uptake at 1 h,"[1]; lung, Blocking (100 μg non-radioactive 6-Ahx-Phe^19-STh co-injected), read-out: biodistribution, Lung",0.45 ± 0.16 %ID/g
same,tissue uptake at 1 h,[1]; [9],0.56 ± 0.19 %ID/g
same,tissue uptake at 4 h,"[1]; lung, 4 hours post-injection, read-out: biodistribution, Lung",0.09 ± 0.06 %ID/g
same,tissue uptake at 24 h,[1]; [9],0.06 ± 0.03 %ID/g
same,tissue uptake at 1 h,"[1]; muscle, Blocking (100 μg non-radioactive 6-Ahx-Phe^19-STh co-injected), read-out: biodistribution, Muscle",0.18 ± 0.08 %ID/g
same,tissue uptake at 1 h,[1]; [10],0.19 ± 0.08 %ID/g
same,tissue uptake at 4 h,"[1]; muscle, 4 hours post-injection, read-out: biodistribution, Muscle",0.06 ± 0.04 %ID/g
same,tissue uptake at 24 h,[1]; [10],0.04 ± 0.03 %ID/g
same,tissue uptake at 1 h,"[1]; pancreas, Blocking (100 μg non-radioactive 6-Ahx-Phe^19-STh co-injected), read-out: biodistribution, Pancreas",0.16 ± 0.07 %ID/g
same,tissue uptake at 1 h,[1]; [11],0.21 ± 0.09 %ID/g
same,tissue uptake at 4 h,"[1]; pancreas, 4 hours post-injection, read-out: biodistribution, Pancreas",0.04 ± 0.05 %ID/g
same,tissue uptake at 24 h,[1]; [11],0.02 ± 0.03 %ID/g
same,tissue uptake at 1 h,"[1]; small intestine, Blocking (100 μg non-radioactive 6-Ahx-Phe^19-STh co-injected), read-out: biodistribution, Small Intestine",0.25 ± 0.1 %ID/g
same,tissue uptake at 1 h,[1]; [12],1.37 ± 0.55 %ID/g
same,tissue uptake at 4 h,"[1]; small intestine, 4 hours post-injection, read-out: biodistribution, Small Intestine",0.44 ± 0.07 %ID/g
same,tissue uptake at 24 h,[1]; [12],0.09 ± 0.02 %ID/g
same,tissue uptake at 1 h,"[1]; spleen, Blocking (100 μg non-radioactive 6-Ahx-Phe^19-STh co-injected), read-out: biodistribution, Spleen",0.12 ± 0.07 %ID/g
same,tissue uptake at 1 h,[1]; [13],0.19 ± 0.16 %ID/g
same,tissue uptake at 4 h,"[1]; spleen, 4 hours post-injection, read-out: biodistribution, Spleen",0.13 ± 0.15 %ID/g
same,tissue uptake at 24 h,[1]; [13],0.12 ± 0.08 %ID/g
same,tissue uptake at 1 h,"[1]; stomach, Blocking (100 μg non-radioactive 6-Ahx-Phe^19-STh co-injected), read-out: biodistribution, Stomach",0.61 ± 0.64 %ID/g
same,tissue uptake at 1 h,[1]; [14],0.53 ± 0.47 %ID/g
same,tissue uptake at 4 h,"[1]; stomach, 4 hours post-injection, read-out: biodistribution, Stomach",0.17 ± 0.06 %ID/g
same,tissue uptake at 24 h,[1]; [14],0.02 ± 0.01 %ID/g
same,dose excreted at 1 h,"[1]; urine, Blocking (100 μg non-radioactive 6-Ahx-Phe^19-STh co-injected), read-out: biodistribution, Urine (Avg % ID)",93.1 ± 1.5%
same,dose excreted at 1 h,[1]; [15],86.4 ± 5%
same,dose excreted at 4 h,"[1]; urine, 4 hours post-injection, read-out: biodistribution, Urine (Avg % ID)",96.1 ± 1%
same,dose excreted at 24 h,[1]; [15],97.8 ± 0.7%
same,"biodistribution, Heart",[2],0.00 ± 0.00 % ID/gm
